Assay results taken from patent publication US20230416362A1 (published 2023).

T1: recombinant human TIGIT IgV domain (UniProt Q495A1 22-141)
T1 chain: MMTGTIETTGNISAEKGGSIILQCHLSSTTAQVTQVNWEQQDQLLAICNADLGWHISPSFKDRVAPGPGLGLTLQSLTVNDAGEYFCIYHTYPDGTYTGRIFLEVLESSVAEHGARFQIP

T2: recombinant mouse TIGIT IgV domain (UniProt P86176 29-145)
T2 chain: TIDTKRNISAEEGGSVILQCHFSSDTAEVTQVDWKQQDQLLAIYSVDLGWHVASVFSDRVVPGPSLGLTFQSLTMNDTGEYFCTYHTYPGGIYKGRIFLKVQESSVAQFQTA

B1: 7D4 (antibody, V domains shown)
VH: QVQLKHSGAELVRPGTSVKMSCKASGYTFTNYWIGWAKQRPGHGLEWIGDIYPGSSFTNSNEKFKGKATLTADKSSSTAYMQFSSLTSEDSAIYYCAKLGRGYWYFDVWGTGTSVTVSA
VL: DIVLTQSPAIMSASLGEEITLTCSASSSVSYIHWYQQKSGTSPKLLIYTTSNLASGVPSRFSGSGSGTFYSLTISSVEAEDAADYYCHQWSRYPTFGGGTKLEIK
B2: 3A9 (antibody, V domains shown)
VH: QVQLQQPGAELVRPGSSVKLSCKASGYTFTSYWMHWVKQRPIQGLEWIGNIDPSDSATHYNQKFKDKATLTVDKSSSTAYMHLSSLTSEDSAVYYCARTGIDYGSSYFDYWGQGTILTVSS
VL: DIVLTQSPASLAVSLGQRATISCRASQSVSTSSYSYIHWYQQKPGQPPKLLIKYASNLESGVPARFSGSGSGTDFTLNIHPVEEEDTATYYCQHNWEIPRTFGGGTKLEIK
B3: 2C9 (antibody, V domains shown)
VH: DIQLKQSGAELVRPGASVKLSCKASGYTFTDSYINWVKQRPGQGLEWIARFYPGSGNTYYNEKFKGKATLTAEKSSSTAYMQLSSLTSEDSAVYFCAREAWLLFYGMDYWGQGTTVTVSS
VL: DIVLTQSPAIMSASPGEKVTISCSANSSVSYMYWYQQKPGSSPKPWIYRTSNLASGVPARFSGSGSGTSYSLTISSMEAEDAATYYCQQYHSYPLTFGAGTKLELK

Key:
Assay in all cases: ELISA
cyno TIGIT IgV domain = biological target: cyno TIGIT IgV domain
Chain of cyno TIGIT IgV domain (Q495A1 other isoform, or with tags, fused parts or gaps): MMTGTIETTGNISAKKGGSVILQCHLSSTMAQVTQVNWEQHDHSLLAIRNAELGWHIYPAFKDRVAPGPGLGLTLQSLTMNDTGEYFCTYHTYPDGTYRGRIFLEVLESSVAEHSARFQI

[1] = biological target: T1, recombinant human TIGIT IgV domain
[2] = biological target: T2, recombinant mouse TIGIT IgV domain

Binder | EC50 (cyno TIGIT IgV domain) [nM] | EC50 [1] [nM] | EC50 [2] [nM]
B1 | 21.3 | 0.13 | –
B2 | 4.46 | 0.38 | 172
B3 | 69.9 | 0.23 | 138
